These are literature values, as cited in publication PMC12017986.

Where two headings read alike, the source gives them in different places.

Data set [1] addresses Swallow (Drosophila melanogaster) (UniProt P40688).
In data set [2] the target is Dynein intermediate chain (IC) (Drosophila melanogaster) (UniProt Q24246).
For data set [3] the target is unchanged. The source holds these as a separate data set.

Chain of UniProt Q24246 (Q24246 whole entry): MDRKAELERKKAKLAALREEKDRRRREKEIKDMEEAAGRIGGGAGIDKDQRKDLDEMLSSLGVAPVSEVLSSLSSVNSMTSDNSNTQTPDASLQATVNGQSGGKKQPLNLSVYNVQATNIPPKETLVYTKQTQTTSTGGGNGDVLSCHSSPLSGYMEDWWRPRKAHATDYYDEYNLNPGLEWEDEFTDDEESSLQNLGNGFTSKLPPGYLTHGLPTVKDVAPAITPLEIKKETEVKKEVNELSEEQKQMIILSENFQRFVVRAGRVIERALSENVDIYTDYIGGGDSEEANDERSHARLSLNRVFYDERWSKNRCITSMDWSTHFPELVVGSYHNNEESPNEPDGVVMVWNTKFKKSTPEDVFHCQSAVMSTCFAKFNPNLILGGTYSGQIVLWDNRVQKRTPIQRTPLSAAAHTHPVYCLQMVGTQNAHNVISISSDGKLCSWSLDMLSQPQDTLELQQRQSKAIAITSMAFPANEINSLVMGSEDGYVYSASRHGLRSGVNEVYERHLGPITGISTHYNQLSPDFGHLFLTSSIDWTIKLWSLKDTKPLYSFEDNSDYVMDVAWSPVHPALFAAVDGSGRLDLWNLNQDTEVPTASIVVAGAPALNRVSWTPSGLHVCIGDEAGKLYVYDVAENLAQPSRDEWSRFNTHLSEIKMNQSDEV
Chain of UniProt P40688 (P40688 whole entry): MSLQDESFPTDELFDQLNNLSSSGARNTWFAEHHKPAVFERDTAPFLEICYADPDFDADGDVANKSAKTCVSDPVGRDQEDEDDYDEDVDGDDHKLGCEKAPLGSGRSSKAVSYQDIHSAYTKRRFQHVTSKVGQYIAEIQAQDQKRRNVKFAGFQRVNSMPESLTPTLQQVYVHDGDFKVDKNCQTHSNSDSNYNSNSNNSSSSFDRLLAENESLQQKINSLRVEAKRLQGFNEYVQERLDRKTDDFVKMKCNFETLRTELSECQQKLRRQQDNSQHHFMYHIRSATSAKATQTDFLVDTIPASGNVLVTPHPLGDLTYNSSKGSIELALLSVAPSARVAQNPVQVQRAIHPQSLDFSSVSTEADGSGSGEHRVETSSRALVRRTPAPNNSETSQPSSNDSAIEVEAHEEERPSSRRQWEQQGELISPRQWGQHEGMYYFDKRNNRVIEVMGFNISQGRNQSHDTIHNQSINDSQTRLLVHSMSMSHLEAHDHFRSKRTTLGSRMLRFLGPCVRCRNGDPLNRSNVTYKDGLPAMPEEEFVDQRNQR

On to LC8 (from UniProt Q24117), for which the dissociation constant (Kd) in data set [1] was 200 nM; in data set [2], 130 nM; in data set [3] it was 8000 nM.

One may read the Kd as the concentration at which binding is half-saturated.
